B1: humanized CD19 antibody VH3 + VL2 (antibody, V domains shown)
VH: QVQLQESGPGLVKPSQTLSLTCTVSGVSLPDYGVSWIRQPPGKGLEWIGVIWGSETTYYNSALKSRLTISKDTSKNQVSLKLSSVTAADTAVYYCAKHYYYGGSYAMDYWGQGTTVTVSS
VL: DIQMTQSPSSLSASVGDRVTITCRASQDISKYLNWYQQKPGKAPKLLIYHTSRLHSGVPSRFSGSGSGTDYTFTISSLQPEDIATYYCQQGNTLPYTFGGGTKLEIK
notes: also called Antibody No. 8
B2: humanized CD19 antibody VH5 + VL2 (antibody, V domains shown)
VH: QVQLQESGPGLVKPSQTLSVTCTVSGVSLPDYGVSWIRQPPGKGLEWLGVIWGSETTYYNSALKSRLTISKDTSKNQVSLKLSSLTAADTAVYYCAKHYYYGGSYAMDYWGQGTTVTVSS
VL: DIQMTQSPSSLSASVGDRVTITCRASQDISKYLNWYQQKPGKAPKLLIYHTSRLHSGVPSRFSGSGSGTDYTFTISSLQPEDIATYYCQQGNTLPYTFGGGTKLEIK
notes: also called Antibody No. 14
B3: humanized CD19 antibody VH5 + VL1 (antibody, V domains shown)
VH: QVQLQESGPGLVKPSQTLSVTCTVSGVSLPDYGVSWIRQPPGKGLEWLGVIWGSETTYYNSALKSRLTISKDTSKNQVSLKLSSLTAADTAVYYCAKHYYYGGSYAMDYWGQGTTVTVSS
VL: DIQMTQSPSSLSASVGDRVTITCRASQDISKYLNWYQQKPGKAPKLLIYHTSRLHSGVPSRFSGSGSGTDFTFTISSLQPEDIATYYCQQGNTLPYTFGGGTKLEIK
notes: also called Antibody No. 13
B4: humanized CD19 antibody VH6 + VL4 (antibody, V domains shown)
VH: QVQLQESGPGLVKPSQTLSVTCTVSGVSLPDYGVSWIRQPPGKGLEWLGVIWGSETTYYNAALKSRLTISKDTSKNQVSLKLSSLTAADTAVYYCAKHYYYGGSYAMDYWGQGTTVTVSS
VL: DIQMTQSPSSLSASVGDRVTITCRASQDISKYLNWYQQKPGKAPKLLIYHTSRLHSGVPSRFSGSGSGTDYTLTISSLQPEDIATYYCQQANTLPYTFGGGTKLEIK
notes: also called Antibody No. 16
B5: humanized CD19 antibody VH4 + VL3 (antibody, V domains shown)
VH: QVQLQESGPGLVKPSQTLSLTCTVSGVSLPDYGVSWIRQPPGKGLEWLGVIWGSETTYYNSALKSRLTISKDTSKNQVSLKLSSVTAADTAVYYCAKHYYYGGSYAMDYWGQGTTVTVSS
VL: DIQMTQSPSSLSASVGDRVTITCRASQDISKYLNWYQQKPGKAPKLLIYHTSRLHSGVPSRFSGSGSGTDYTLTISSLQPEDIATYYCQQGNTLPYTFGGGTKLEIK
notes: also called Antibody No. 12
B6: humanized CD19 antibody VH1 + VL3 (antibody, V domains shown)
VH: QVQLQESGPGLVKPSQTLSLTCTVSGVSLPDYGVSWIRQPPGKGLEWIGVIWGSETTYYNSALKSRVTISVDTSKNQFSLKLSSVTAADTAVYYCARHYYYGGSYAMDYWGQGTTVTVSS
VL: DIQMTQSPSSLSASVGDRVTITCRASQDISKYLNWYQQKPGKAPKLLIYHTSRLHSGVPSRFSGSGSGTDYTLTISSLQPEDIATYYCQQGNTLPYTFGGGTKLEIK
notes: also called Antibody No. 3
B7: humanized CD19 antibody VH1 + VL2 (antibody, V domains shown)
VH: QVQLQESGPGLVKPSQTLSLTCTVSGVSLPDYGVSWIRQPPGKGLEWIGVIWGSETTYYNSALKSRVTISVDTSKNQFSLKLSSVTAADTAVYYCARHYYYGGSYAMDYWGQGTTVTVSS
VL: DIQMTQSPSSLSASVGDRVTITCRASQDISKYLNWYQQKPGKAPKLLIYHTSRLHSGVPSRFSGSGSGTDYTFTISSLQPEDIATYYCQQGNTLPYTFGGGTKLEIK
notes: also called Antibody No. 2
B8: humanized CD19 antibody VH1 + VL1 (antibody, V domains shown)
VH: QVQLQESGPGLVKPSQTLSLTCTVSGVSLPDYGVSWIRQPPGKGLEWIGVIWGSETTYYNSALKSRVTISVDTSKNQFSLKLSSVTAADTAVYYCARHYYYGGSYAMDYWGQGTTVTVSS
VL: DIQMTQSPSSLSASVGDRVTITCRASQDISKYLNWYQQKPGKAPKLLIYHTSRLHSGVPSRFSGSGSGTDFTFTISSLQPEDIATYYCQQGNTLPYTFGGGTKLEIK
notes: also called Antibody No. 1
B9: humanized CD19 antibody VH4 + VL1 (antibody, V domains shown)
VH: QVQLQESGPGLVKPSQTLSLTCTVSGVSLPDYGVSWIRQPPGKGLEWLGVIWGSETTYYNSALKSRLTISKDTSKNQVSLKLSSVTAADTAVYYCAKHYYYGGSYAMDYWGQGTTVTVSS
VL: DIQMTQSPSSLSASVGDRVTITCRASQDISKYLNWYQQKPGKAPKLLIYHTSRLHSGVPSRFSGSGSGTDFTFTISSLQPEDIATYYCQQGNTLPYTFGGGTKLEIK
notes: also called Antibody No. 10
B10: humanized CD19 antibody VH2 + VL2 (antibody, V domains shown)
VH: QVQLQESGPGLVKPSQTLSLTCTVSGVSLPDYGVSWIRQPPGKGLEWIGVIWGSETTYYNSALKSRVTISKDTSKNQVSLKLSSVTAADTAVYYCAKHYYYGGSYAMDYWGQGTTVTVSS
VL: DIQMTQSPSSLSASVGDRVTITCRASQDISKYLNWYQQKPGKAPKLLIYHTSRLHSGVPSRFSGSGSGTDYTFTISSLQPEDIATYYCQQGNTLPYTFGGGTKLEIK
notes: also called Antibody No. 5
B11: humanized CD19 antibody VH5 + VL3 (antibody, V domains shown)
VH: QVQLQESGPGLVKPSQTLSVTCTVSGVSLPDYGVSWIRQPPGKGLEWLGVIWGSETTYYNSALKSRLTISKDTSKNQVSLKLSSLTAADTAVYYCAKHYYYGGSYAMDYWGQGTTVTVSS
VL: DIQMTQSPSSLSASVGDRVTITCRASQDISKYLNWYQQKPGKAPKLLIYHTSRLHSGVPSRFSGSGSGTDYTLTISSLQPEDIATYYCQQGNTLPYTFGGGTKLEIK
notes: also called Antibody No. 15
B12: humanized CD19 antibody VH3 + VL1 (antibody, V domains shown)
VH: QVQLQESGPGLVKPSQTLSLTCTVSGVSLPDYGVSWIRQPPGKGLEWIGVIWGSETTYYNSALKSRLTISKDTSKNQVSLKLSSVTAADTAVYYCAKHYYYGGSYAMDYWGQGTTVTVSS
VL: DIQMTQSPSSLSASVGDRVTITCRASQDISKYLNWYQQKPGKAPKLLIYHTSRLHSGVPSRFSGSGSGTDFTFTISSLQPEDIATYYCQQGNTLPYTFGGGTKLEIK
notes: also called Antibody No. 7
B13: humanized CD19 antibody VH3 + VL3 (antibody, V domains shown)
VH: QVQLQESGPGLVKPSQTLSLTCTVSGVSLPDYGVSWIRQPPGKGLEWIGVIWGSETTYYNSALKSRLTISKDTSKNQVSLKLSSVTAADTAVYYCAKHYYYGGSYAMDYWGQGTTVTVSS
VL: DIQMTQSPSSLSASVGDRVTITCRASQDISKYLNWYQQKPGKAPKLLIYHTSRLHSGVPSRFSGSGSGTDYTLTISSLQPEDIATYYCQQGNTLPYTFGGGTKLEIK
notes: also called Antibody No. 9
B14: humanized CD19 antibody VH4 + VL2 (antibody, V domains shown)
VH: QVQLQESGPGLVKPSQTLSLTCTVSGVSLPDYGVSWIRQPPGKGLEWLGVIWGSETTYYNSALKSRLTISKDTSKNQVSLKLSSVTAADTAVYYCAKHYYYGGSYAMDYWGQGTTVTVSS
VL: DIQMTQSPSSLSASVGDRVTITCRASQDISKYLNWYQQKPGKAPKLLIYHTSRLHSGVPSRFSGSGSGTDYTFTISSLQPEDIATYYCQQGNTLPYTFGGGTKLEIK
notes: also called Antibody No. 11
B15: humanized CD19 antibody VH2 + VL3 (antibody, V domains shown)
VH: QVQLQESGPGLVKPSQTLSLTCTVSGVSLPDYGVSWIRQPPGKGLEWIGVIWGSETTYYNSALKSRVTISKDTSKNQVSLKLSSVTAADTAVYYCAKHYYYGGSYAMDYWGQGTTVTVSS
VL: DIQMTQSPSSLSASVGDRVTITCRASQDISKYLNWYQQKPGKAPKLLIYHTSRLHSGVPSRFSGSGSGTDYTLTISSLQPEDIATYYCQQGNTLPYTFGGGTKLEIK
notes: also called Antibody No. 6
B16: humanized CD19 antibody VH2 + VL1 (antibody, V domains shown)
VH: QVQLQESGPGLVKPSQTLSLTCTVSGVSLPDYGVSWIRQPPGKGLEWIGVIWGSETTYYNSALKSRVTISKDTSKNQVSLKLSSVTAADTAVYYCAKHYYYGGSYAMDYWGQGTTVTVSS
VL: DIQMTQSPSSLSASVGDRVTITCRASQDISKYLNWYQQKPGKAPKLLIYHTSRLHSGVPSRFSGSGSGTDFTFTISSLQPEDIATYYCQQGNTLPYTFGGGTKLEIK
notes: also called Antibody No. 4
B17: humanized CD19 antibody VH2 + VL6 (antibody, V domains shown)
VH: QVQLQESGPGLVKPSQTLSLTCTVSGVSLPDYGVSWIRQPPGKGLEWIGVIWGSETTYYNSALKSRVTISKDTSKNQVSLKLSSVTAADTAVYYCAKHYYYGGSYAMDYWGQGTTVTVSS
VL: DIQMTQSPSSLSASVGDRVTITCRASQDISKYLNWYQQKPGGAVKLLIYHTSRLHSGVPSRFSGSGSGTDYTFTISSLQPEDIATYFCQQGNTLPYTFGGGTKLEIK
B18: humanized CD19 antibody VH2 + VL7 (antibody, V domains shown)
VH: QVQLQESGPGLVKPSQTLSLTCTVSGVSLPDYGVSWIRQPPGKGLEWIGVIWGSETTYYNSALKSRVTISKDTSKNQVSLKLSSVTAADTAVYYCAKHYYYGGSYAMDYWGQGTTVTVSS
VL: DIQMTQSPSSLSASVGDRVTISCRASQDISKYLNWYQQKPDGTVKLLIYHTSRLHSGVPSRFSGSGSGTDFTFTISSLQPEDIATYFCQQGNTLPYTFGGGTKLEIK

A word on the Kd: it is the free concentration of one partner at which half of the binding sites on the other are occupied at equilibrium, for simple one-to-one binding. By koff is commonly meant the rate constant with which the complex falls apart. Low values mean slow dissociation, high ones fast dissociation. In general, kon refers to the rate constant with which the complex forms. A high value points to fast association.

For one test, the target named is T1, human CD19 antigen (human, UniProt P15391 20-291, limits assumed).
T1 sequence (looked up): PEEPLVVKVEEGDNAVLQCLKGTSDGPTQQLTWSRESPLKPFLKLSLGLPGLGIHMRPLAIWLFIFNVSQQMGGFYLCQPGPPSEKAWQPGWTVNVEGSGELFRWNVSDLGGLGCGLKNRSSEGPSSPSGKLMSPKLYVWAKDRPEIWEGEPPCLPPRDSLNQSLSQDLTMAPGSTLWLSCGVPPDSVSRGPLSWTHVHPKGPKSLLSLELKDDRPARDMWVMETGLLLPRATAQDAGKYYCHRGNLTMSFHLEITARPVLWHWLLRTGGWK
Description: SPR (Biacore), antibody captured via Fc. As to the method:
Part of the antibodies in Example 1 were tested for affinity, and the composition of the heavy chain variable regions and the light chain variable regions of the antibodies to be tested are shown in Table 1.
(§1) HEK293 cells were used to express the antibodies to be tested and Protein A was used for purification. The surface plasmon resonance technique (SPR) was used for determination, and the Fc capture method was used for antibody fixation.
For orientation: SPR reads the build-up and loss of mass on a sensor chip optically.
For B1, the Kd came out at 109 nM and the koff amounted to 0.000638 s⁻¹.

The molecule B2 showed a Kd of 14.8 nM and a koff of 0.0018 s⁻¹.

The molecule B3 had a Kd of 99.7 nM and a koff of 0.000637 s⁻¹.

B4 displayed a Kd of 21000 nM and an off-rate (koff) of 0.00493 s⁻¹.

Consider B5, for which binding was put at a Kd of 56.1 nM and the koff stood at 0.000437 s⁻¹.

B6 displayed a Kd of 40.7 nM and a koff of 0.0794 s⁻¹.

B7 came in with a Kd of 7.95 nM and a koff of 0.00738 s⁻¹.

B8 yielded a Kd of 57.6 nM and a koff of 0.00808 s⁻¹.

Turning to B9, the Kd came out at 81 nM and the koff worked out at 0.000584 s⁻¹.

For the molecule B10, binding was characterised by a dissociation constant (Kd) of 66.8 nM and the koff was found to be 0.000526 s⁻¹.

Molecule B11 had a Kd of 14.2 nM and a koff of 0.00143 s⁻¹.

The molecule B12 displayed a Kd of 111 nM and a koff of 0.000688 s⁻¹.

Turning to B13, the Kd turned out to be 15.8 nM and the koff was 0.00159 s⁻¹.

On to B14, for which binding was put at a Kd of 89.2 nM and the koff turned out to be 0.000605 s⁻¹.

Regarding B15, the affinity, expressed as Kd, was 44.7 nM and the koff turned out to be 0.000395 s⁻¹.

B16: the Kd stood at 69.8 nM and the koff is 0.000568 s⁻¹.

A further test concerns the target T1, human CD19 antigen. As to the kind of experiment: SPR (Biacore), antibody captured via Fc. This is another data set of the same source. As to the method:
Part of the antibodies in Example 1 were tested for affinity, and the composition of the heavy chain variable regions and the light chain variable regions of the antibodies to be tested are shown in Table 2.
as §1
With B17, binding was put at a Kd of 6.93 nM, the koff is 0.00124 s⁻¹ and the kon came out at 179000 M⁻¹ s⁻¹.

In the case of B18, the Kd was determined as 6.39 nM, the koff amounted to 0.00116 s⁻¹ and the kon came to 181000 M⁻¹ s⁻¹.

Values taken from patent US20230235052A1 (GRACELL BIOTECHNOLOGIES SHANGHAI, published 2023).
